The assay deals with GST fused with the C-terminal variable region of LigB (LigBCtv; amino acids 1418-1889) (Leptospira interrogans serovar Pomona). The experiment in a line: ITC. For orientation: Isothermal titration calorimetry measures the heat released or taken up as one component is titrated into another.

pKd: −log10 of the molar value.

In the case of “Human plasma fibronectin (natural protein)”, the pKd (as a rule, the negative decadic logarithm of the Kd, by convention in mol/L) was 5.07.

(Values after article PMC2839090.)
